Experimental findings from publication PMC4490436 are described below.

No end group written: not given here. *: point of attachment. OAll = C=CCO*

The target in experiment [1] is CXCR4 receptor (human (endogenous in CCRF-CEM)) (UniProt P61073).
Experiment [2] shares this target. This is another data set of the same source.

UniProt P61073, sequence (P61073 whole entry): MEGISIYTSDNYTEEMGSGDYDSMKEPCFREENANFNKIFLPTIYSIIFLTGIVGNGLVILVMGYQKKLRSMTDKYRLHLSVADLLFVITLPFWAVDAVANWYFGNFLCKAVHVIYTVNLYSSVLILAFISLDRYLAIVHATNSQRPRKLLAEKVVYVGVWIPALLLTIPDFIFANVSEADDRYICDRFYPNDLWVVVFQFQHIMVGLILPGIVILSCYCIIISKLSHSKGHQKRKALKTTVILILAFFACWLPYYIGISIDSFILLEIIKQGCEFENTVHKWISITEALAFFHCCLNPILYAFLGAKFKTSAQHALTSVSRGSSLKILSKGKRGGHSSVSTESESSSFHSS

As to YGECPCK-OAll (cysteine pairing not given here) [PepK], in experiment [1], the migration index of CCRF-CEM cells towards CXCL12 (100 ng/mL) in a Transwell assay; 1.75-fold without peptide stood at 1.55 fold. YGECPCE-OAll (cysteine pairing not given here) [PepE] showed a migration index of CCRF-CEM cells towards CXCL12 (100 ng/mL) in a Transwell assay; 1.75-fold without peptide in experiment [1] of 1.35 fold. Moreover, the increase of the cAMP level in CCRF-CEM cells in the presence of CXCL12 (100 ng/mL) and forskolin (1 uM); PepE at 1 and 10 uM (20% at 1 uM), dose dependent in experiment [2] stood at 65%.
